T1: recombinant human C1r2s2 tetramer (human, UniProt P09871 16-688; P00736 18-705)
T1 construct: C1s and C1r co-expressed in HEK293 and purified from the supernatant as tetramer; also called hC1r2s2
T1 chain 1: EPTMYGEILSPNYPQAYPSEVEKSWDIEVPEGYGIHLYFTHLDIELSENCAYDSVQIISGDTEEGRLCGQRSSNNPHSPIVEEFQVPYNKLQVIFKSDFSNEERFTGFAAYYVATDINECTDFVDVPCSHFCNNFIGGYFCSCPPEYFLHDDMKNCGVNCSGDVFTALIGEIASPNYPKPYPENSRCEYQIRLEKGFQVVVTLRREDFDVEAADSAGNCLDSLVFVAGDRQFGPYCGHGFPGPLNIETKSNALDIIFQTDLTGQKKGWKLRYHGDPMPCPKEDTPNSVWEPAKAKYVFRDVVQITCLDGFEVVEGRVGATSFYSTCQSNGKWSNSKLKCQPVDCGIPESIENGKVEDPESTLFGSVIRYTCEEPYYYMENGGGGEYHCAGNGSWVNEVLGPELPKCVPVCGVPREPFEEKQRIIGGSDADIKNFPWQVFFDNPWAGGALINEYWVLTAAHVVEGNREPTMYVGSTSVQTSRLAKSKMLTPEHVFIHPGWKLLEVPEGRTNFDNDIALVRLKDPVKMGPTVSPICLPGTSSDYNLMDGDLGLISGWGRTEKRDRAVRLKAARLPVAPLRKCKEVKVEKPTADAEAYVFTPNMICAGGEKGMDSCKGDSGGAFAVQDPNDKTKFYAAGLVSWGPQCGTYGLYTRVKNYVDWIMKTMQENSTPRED
T1 chain 2: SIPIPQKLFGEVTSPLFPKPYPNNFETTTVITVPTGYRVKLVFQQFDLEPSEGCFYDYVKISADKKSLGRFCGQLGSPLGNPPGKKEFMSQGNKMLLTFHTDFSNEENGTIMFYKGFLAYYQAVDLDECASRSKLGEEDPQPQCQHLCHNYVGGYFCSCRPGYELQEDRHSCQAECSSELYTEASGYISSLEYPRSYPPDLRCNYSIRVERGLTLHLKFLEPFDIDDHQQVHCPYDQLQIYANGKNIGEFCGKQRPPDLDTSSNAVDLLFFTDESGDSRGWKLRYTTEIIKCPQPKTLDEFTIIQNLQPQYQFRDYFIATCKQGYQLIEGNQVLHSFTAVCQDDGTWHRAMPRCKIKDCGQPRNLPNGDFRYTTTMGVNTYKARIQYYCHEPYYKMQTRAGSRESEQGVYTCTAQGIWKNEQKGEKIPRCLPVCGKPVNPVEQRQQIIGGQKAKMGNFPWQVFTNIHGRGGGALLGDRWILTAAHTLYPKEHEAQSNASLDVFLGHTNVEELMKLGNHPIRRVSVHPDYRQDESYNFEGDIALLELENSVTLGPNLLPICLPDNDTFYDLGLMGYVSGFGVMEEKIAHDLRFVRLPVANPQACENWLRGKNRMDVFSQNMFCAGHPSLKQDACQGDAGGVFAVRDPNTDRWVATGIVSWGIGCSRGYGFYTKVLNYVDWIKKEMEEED

T2: recombinant cynomolgus C1r2s2 tetramer (cynomolgus monkey, limits assumed)
T2 construct: also called cyC1r2s2; monkey C1r2s2
T2 chain 1: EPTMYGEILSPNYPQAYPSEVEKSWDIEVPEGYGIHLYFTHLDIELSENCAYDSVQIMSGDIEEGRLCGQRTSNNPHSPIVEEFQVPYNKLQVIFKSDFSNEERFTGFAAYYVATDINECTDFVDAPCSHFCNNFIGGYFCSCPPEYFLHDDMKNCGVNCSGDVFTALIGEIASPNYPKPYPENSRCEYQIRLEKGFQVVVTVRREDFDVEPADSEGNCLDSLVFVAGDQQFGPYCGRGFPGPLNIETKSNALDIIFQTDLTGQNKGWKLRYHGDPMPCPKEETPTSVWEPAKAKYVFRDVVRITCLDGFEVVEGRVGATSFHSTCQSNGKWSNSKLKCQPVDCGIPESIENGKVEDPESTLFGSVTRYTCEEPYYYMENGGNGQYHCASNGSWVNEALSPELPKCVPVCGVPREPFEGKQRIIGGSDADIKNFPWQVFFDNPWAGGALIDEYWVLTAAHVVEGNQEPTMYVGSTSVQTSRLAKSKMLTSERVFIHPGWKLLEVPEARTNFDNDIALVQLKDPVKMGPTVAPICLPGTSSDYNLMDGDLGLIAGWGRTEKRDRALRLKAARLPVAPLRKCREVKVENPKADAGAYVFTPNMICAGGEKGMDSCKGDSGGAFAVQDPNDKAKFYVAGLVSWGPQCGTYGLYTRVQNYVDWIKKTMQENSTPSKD
T2 chain 2: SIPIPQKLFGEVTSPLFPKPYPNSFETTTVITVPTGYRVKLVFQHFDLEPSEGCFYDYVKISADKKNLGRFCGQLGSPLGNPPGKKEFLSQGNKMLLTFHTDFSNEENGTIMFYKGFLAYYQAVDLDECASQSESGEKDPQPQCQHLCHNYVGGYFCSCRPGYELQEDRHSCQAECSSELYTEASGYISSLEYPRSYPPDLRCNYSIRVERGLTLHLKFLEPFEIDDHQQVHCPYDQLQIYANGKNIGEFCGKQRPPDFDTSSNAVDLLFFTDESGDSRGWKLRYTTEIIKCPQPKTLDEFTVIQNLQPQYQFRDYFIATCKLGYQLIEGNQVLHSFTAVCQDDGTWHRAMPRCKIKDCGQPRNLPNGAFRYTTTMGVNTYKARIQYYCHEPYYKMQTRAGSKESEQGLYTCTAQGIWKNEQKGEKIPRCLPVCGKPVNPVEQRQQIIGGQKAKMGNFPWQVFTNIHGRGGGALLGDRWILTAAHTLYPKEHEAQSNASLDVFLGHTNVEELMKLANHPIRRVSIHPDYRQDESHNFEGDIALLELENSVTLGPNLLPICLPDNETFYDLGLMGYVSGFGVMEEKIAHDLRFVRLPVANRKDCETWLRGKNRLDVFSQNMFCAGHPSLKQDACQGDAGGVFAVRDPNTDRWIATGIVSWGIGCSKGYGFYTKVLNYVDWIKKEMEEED


Legend:
[1] = biological target: T1, recombinant human C1r2s2 tetramer; assay: SPR (Biacore T200), IPN009 immobilised on CM5 chip as capture antibody
Protocol: (§1) The binding property of each sample at pH7.4 and pH6.0 was determined at 37° C. using BIACORE® T200 instrument (Cytiva). […] 20 mM ACES, 150 mM NaCl, 1.2 mM CaCl₂, 1 mg/mL BSA (not containing IgG), 1 mg/mL CMD, 0.05% Tween® 20, 0.005 w/v % NaN₃, pH7.4 or pH6.0 buffer was used as the running buffer. […] The antibody solution was added thereto at 30 μL/min for 120 seconds, the running buffer was then added at 30 μL/min for 180 seconds, and the dissociation constant (KD) of each antibody for hC1r2s2 and cyC1r2s2 was calculated. […] The sensor surface was regenerated every cycle, using 3 M MgCl2 (prepared in-house). The KD value was calculated using BIACORE® T200 evaluation software version 2.0 (Cytiva). The binding strengths under each pH condition were compared by dividing the KD value at pH6.0 with the KD value at pH7.4.

[2] = biological target: T2, recombinant cynomolgus C1r2s2 tetramer; assay: as above
Protocol: as §1

[3] = biological target: T1, recombinant human C1r2s2 tetramer; assay: SPR (Biacore T200), 37 C; ratio of KD at pH 6.0 to KD at pH 7.4
Protocol: as §1

[4] = biological target: T2, recombinant cynomolgus C1r2s2 tetramer; assay: as above
Protocol: as §1

[5] = biological target: T1, recombinant human C1r2s2 tetramer; assay: SPR (Biacore T200), 37 C, pH 6.0; hC1r2s2 captured by IPN009, antibody as analyte; pH 6.0, 37 C; hC1r2s2 captured by IPN009 on the chip, antibody as analyte
Protocol: as §1

[6] = biological target: T2, recombinant cynomolgus C1r2s2 tetramer; assay: SPR (Biacore T200), 37 C, pH 7.4; cyC1r2s2 captured by IPN009, antibody as analyte
Protocol: as §1

[7] = biological target: T1, recombinant human C1r2s2 tetramer; assay: SPR (Biacore T200), 37 C, pH 7.4; hC1r2s2 captured by IPN009, antibody as analyte; pH 7.4, 37 C; hC1r2s2 captured by IPN009 on the chip, antibody as analyte
Protocol: as §1

[8] = biological target: T2, recombinant cynomolgus C1r2s2 tetramer; assay: SPR (Biacore T200), 37 C, pH 6.0; cyC1r2s2 captured by IPN009, antibody as analyte
Protocol: as §1

Row | Binder | binding result [1] | binding result [2] | KD (pH 6.0)/KD (pH 7.4) [3] | KD (pH 6.0)/KD (pH 7.4) [4] | Kd [5] [nM] | Kd [6] [nM] | Kd [7] [nM] | Kd [8] [nM]
1 | IPN009VH2VK3-SG1148 (antibody, human IgG1, kappa, V domains shown, Anti-C1s / anti-human C1r2s2 antibody immobilised on the chip as capture reagent) VH: EVMLVESGGGLVKPGGSLRLSCAASGFTFSNYAMSWVRQAPGKGLEWVATISSGGSHTYYLDSVKGRFTISRDNSKDTLYLQMNSLRAEDTALYYCARLFTGYAMDYWGQGTLVTVSS VL: QIVLTQSPATLSLSPGERATLSCTASSSVSSSYLHWYQQKPGKAPKLWIYSTSNLASGVPSRFSGSGSGTDYTLTISSLQPEDFATYYCHQYYRLPPITFGQGTKLEIKR | binds | binds | – | – | – | – | – | –
2 | COS0637pHv3-TT91R (antibody, human IgG1, V domains shown, Modified human IgG1 constant region TT91R, light chain constant region SK1) VH: QVQLVESGGGVVQPGRSLRLSCAASGFTFSAYAMNWIRQPPGKGLEWIGLIYGSGHEFYASWAEERVTISVDTSKNQFSLKLSSVTAADTAVYYCARGRSKNYVSGFHLWGQGTLVTVSS VL: DIQMTQSPSSLSASVGDRVTITCQASQILHDKKNLAWYQQKPGQPPKLLIYQASQLESGVPSRFSGSGSGTDFTLTISSLQPEDFATYYCHGEFSYESADLNQFGQGTKVEIKR | – | – | 26.5 | 43.8 | 10.3 | 0.502 | 0.388 | 22
